The target of one experiment is T1, murine CTLA4 (murine, UniProt P09793 36-161, limits assumed).
T1 construct: also called Mouse CTLA4
Kind of experiment: SPR, antibody captured by anti-human IgG Fc, analyte by OneStep injection at 40 nM and 20 nM. As to the method: (§1) Surface plasmon resonance (SPR) studies were conducted with the purified fusion proteins to assess their binding affinities to relevant targets. The SPR kinetic assay was performed by immobilizing rabbit α-human IgG Fc antibodies (Thermo) on a PCH sensor (Sartorius) as the capture molecule. All molecules of interest were then captured on the sensor surface by α-IgG1-Fc and Fc domain interaction. Binding kinetics against IL-2Rβ, human CTLA4, and murine CTLA4 were determined by OneStep injection at 40 nM and 20 nM of each analyte. […] The αCTLA4-scFv has higher affinity to CTLA4 than when the binding domain is in IgG form.
For orientation: In SPR one partner is held on a chip, and binding of the other changes the refractive index at the surface.

In a further experiment the target is T2, human CTLA4 (human, UniProt P16410 36-161).
T2 sequence (looked up): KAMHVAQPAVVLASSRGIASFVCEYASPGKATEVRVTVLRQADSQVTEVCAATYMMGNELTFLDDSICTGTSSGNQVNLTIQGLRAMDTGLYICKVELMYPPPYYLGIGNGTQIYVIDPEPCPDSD
The description is as above. Here is the method: as §1

We go through one molecule from US20250230211A1 (NANTCELL, published 2025).

B1: αCTLA4-7 (antibody, human IgG1, kappa, V domains shown)
VH: EVQLVESGGGLVQPGGSLRLSCAASGFTFTSYSMHWVRQAPGKGLEWVSGISGSGRSTSYADSVKGRFTISRDNSKNTLYLQMNSLRAEDTAVYYCARDLMAFNLVRAGGFDVWGQGTLVTVSS
VL: DIQMTQSPSSLSASVGDRVTITCQASQDISNYLNWYQQKPGKAPKLLIYDASNLETGVPSRFSGSGSGTDFTFTISSLQPEDIATYYCQQGDAWPWTFGQGTKVEIKR
For B1, the Kd is 0.13 to 2.1 nM with murine CTLA4 and 1.1 to 1.6 nM in the experiment with human CTLA4.

One may read the Kd as a measure of binding affinity in units of concentration. Read a high Kd as a looser complex.
